In the supplement of paper PMC11246515:
± gives the standard deviation of the averaged measurements.

Experiment: total protein half-life in vivo (active degradation + dilution); higher = more stable protein
[1] = E. coli NCM3722 delta-clpP delta-lon delta-hslV, growth: N-lim chemostat, doubling time 6 h
[2] = E. coli NCM3722 delta-clpP, growth: N-lim chemostat, doubling time 6 h
[3] = E. coli NCM3722 delta-hslV, growth: N-lim chemostat, doubling time 6 h
[4] = E. coli NCM3722 delta-lon, growth: N-lim chemostat, doubling time 6 h
[5] = E. coli NCM3722 delta-smpB, growth: N-lim chemostat, doubling time 6 h
[6] = wild type E. coli NCM3722, growth: C-lim chemostat, doubling time 3 h
[7] = wild type E. coli NCM3722, growth: C-lim chemostat, doubling time 12 h
[8] = wild type E. coli NCM3722, growth: N-lim chemostat, doubling time 6 h
[9] = wild type E. coli NCM3722, growth: N-lim chemostat, doubling time 12 h
[10] = wild type E. coli NCM3722, growth: P-lim chemostat, doubling time 12 h
[11] = wild type E. coli NCM3722, growth: C-lim chemostat, doubling time 6 h
[12] = wild type E. coli NCM3722, growth: P-lim chemostat, doubling time 6 h

Sequence	total protein half-life in vivo [1] [h]	total protein half-life in vivo [2] [h]	total protein half-life in vivo [3] [h]	total protein half-life in vivo [4] [h]	total protein half-life in vivo [5] [h]	total protein half-life in vivo [6] [h]	total protein half-life in vivo [7] [h]	total protein half-life in vivo [8] [h]	total protein half-life in vivo [9] [h]	total protein half-life in vivo [10] [h]	total protein half-life in vivo [11] [h]	total protein half-life in vivo [12] [h]
MPEGPEIRRAADNLEAAIKGKPLTDVWFAFPQLKPYQSQLIGQHVTHVETRGKALLTHFSNDLTLYSHNQLYGVWRVVDTGEEPQTTRVLRVKLQTADKTILLYSASDIEMLTPEQLTTHPFLQRVGPDVLDPNLTPEVVKERLLSPRFRNRQFAGLLLDQAFLAGLGNYLRVEILWQVGLTGNHKAKDLNAAQLDALAHALLEIPRFSYATRGQVDENKHHGALFRFKVFHRDGEPCERCGSIIEKTTLSSRPFYWCPGCQH	5.54 ± 0.6	5.55 ± 0.23	6.197 ± 0.018	6.19 ± 0.85	4.38 ± 0.63	2.36 ± 0.55	9.48	5.45	11 ± 0.57	7.33		
MPFKPLVTAGIESLLNTFLYRSPALKTARSRLLGKVLRVEVKGFSTSLILVFSERQVDVLGEWAGDADCTVIAYASVLPKLRDRQQLTALIRSGELEVQGDIQVVQNFVALADLAEFDPAELLAPYTGDIAAEGISKAMRGGAKFLHHGIKRQQRYVAEAITEEWRMAPGPLEVAWFAEETAAVERAVDALTKRLEKLEAK [P0ADP7]	5.27 ± 0.14			4.977 ± 0.043	4.88 ± 0.14	2.77 ± 0.21	7.62 ± 0.27	4.76 ± 0.091	8.56 ± 0.1	8.919 ± 0.012	4.84 ± 0.24	4.93 ± 0.25
MPFTLGQRWISDTESELGLGTVVAVDARTVTLLFPSTGENRLYARSDSPVTRVMFNPGDTITSHDGWQMQVEEVKEENGLLTYIGTRLDTEESGVALREVFLDSKLVFSKPQDRLFAGQIDRMDRFALRYRARKYSSEQFRMPYSGLRGQRTSLIPHQLNIAHDVGRRHAPRVLLADEVGLGKTIEAGMILHQQLLSGAAERVLIIVPETLQHQWLVEMLRRFNLRFALFDDERYAEAQHDAYNPFDTEQLVICSLDFARRSKQRLEHLCEAEWDLLVVDEAHHLVWSEDAPSREYQAIEQLAEHVPGVLLLTATPEQLGMESHFARLRLLDPNRFHDFAQFVEEQKNYRPVADAVAMLLAGNKLSNDELNMLGEMIGEQDIEPLLQAANSDSEDAQSARQELVSMLMDRHGTSRVLFRNTRNGVKGFPKRELHTIKLPLPTQYQTAIKVSGIMGARKSAEDRARDMLYPERIYQEFEGDNATWWNFDPRVEWLMGYLTSHRSQKVLVICAKAATALQLEQVLREREGIRAAVFHEGMSIIERDRAAAWFAEEDTGAQVLLCSEIGSEGRNFQFASHMVMFDLPFNPDLLEQRIGRLDRIGQAHDIQIHVPYLEKTAQSVLVRWYHEGLDAFEHTCPTGRTIYDSVYNDLINYLASPDQTEGFDDLIKNCREQHEALKAQLEQGRDRLLEIHSNGGEKAQALAESIEEQDDDTNLIAFAMNLFDIIGINQDDRGDNMIVLTPSDHMLVPDFPGLSEDGITITFDREVALAREDAQFITWEHPLIRNGLDLILSGDTGSSTISLLKNKALPVGTLLVELIYVVEAQAPKQLQLNRFLPPTPVRMLLDKNGNNLAAQVEFETFNRQLNAVNRHTGSKLVNAVQQDVHAILQLGEAQIEKSARALIDAARNEADEKLSAELSRLEALRAVNPNIRDDELTAIESNRQQVMESLDQAGWRLDALRLIVVTHQ	5.68 ± 0.18	5.48 ± 0.61	5.139 ± 0.024	5.36 ± 0.42	5.21 ± 0.39	3.11 ± 0.088	12.5 ± 1.6	5.09 ± 0.06	9.51 ± 1.1	12.1 ± 1.1	6.26 ± 0.79	6.156 ± 0.013
MPGKIAVEVAYALPEKQYLQRVTLQEGATVEEAIRASGLLELRTDIDLTKNKVGIYSRPAKLSDSVHDGDRVEIYRPLIADPKELRRQRAEKSANK	5.54 ± 0.24	5.02 ± 0.35	3.33	4.06	2.89 ± 0.05	2.87	6.3 ± 3.5	3.34 ± 0.09	5.54	8.44 ± 1	5.02 ± 0.71	5.31
MPGRFELKPTLEKVWHAPDNFRFMDPLPPMHRRGIIIAAIVLVVGFLLPSDDTPNAPVVTREAQLDIQSQSQPPTEEQLRAQLVTPQNDPDQVAPVAPEPIQEGQPEEQPQTTQTQPFQPDSGIDNQWRSYRVEPGKTMAQLFRDHGLPATDVYAMAQVEGAGKPLSNLQNGQMVKIRQNASGVVTGLTIDTGNNQQVLFTRQPDGSFIRAR	5.6 ± 0.12	6.35 ± 0.2	5.57 ± 0.45	6.65 ± 0.27	6.12 ± 0.68		9.18 ± 0.36	5.79 ± 1.1	11.4 ± 0.3	8.86 ± 0.21	5 ± 0.64	
MPHHIVIVEDEPVTQARLQSYFTQEGYTVSVTASGAGLREIMQNQSVDLILLDINLPDENGLMLTRALRERSTVGIILVTGRSDRIDRIVGLEMGADDYVTKPLELRELVVRVKNLLWRIDLARQAQPHTQDNCYRFAGYCLNVSRHTLERDGEPIKLTRAEYEMLVAFVTNPGEILSRERLLRMLSARRVENPDLRTVDVLIRRLRHKLSADLLVTQHGEGYFLAADVC	5.18 ± 0.63	4.57 ± 0.43		4.9	3.92 ± 0.089	2.78 ± 0.039	9.618 ± 0.075	3.89 ± 0.33	5.93	9.93 ± 0.41	5.13 ± 0.33	4.28
MPHIDIKCFPRELDEQQKAALAADITDVIIRHLNSKDSSISIALQQIQPESWQAIWDAEIAPQMEALIKKPGYSMNA												2.92
